Laboratory results taken from patent publication US8975044B2, “Polynucleotides encoding for frizzled-binding agents and uses thereof” (OncoMed Pharmaceuticals, Inc., priority 2008, dated 2015).

B1: 18R5: human anti-FZD antibody; VH SEQ ID NO:10 (as 18R8), VL SEQ ID NO:14; binds FZD1, 2, 5, 7, 8 (antibody, V domains shown)
VH: EVQLVESGGGLVQPGGSLRLSCAASGFTFSHYTLSWVRQAPGKGLEWVSVISGDGSYTYYADSVKGRFTISSDNSKNTLYLQMNSLRAEDTAVYYCARNFIKYVFANWGQGTLVTVSS
VL: DIELTQPPSVSVAPGQTARISCSGDNIGSFYVHWYQQKPGQAPVLVIYDKSNRPSGIPERFSGSNSGNTATLTISGTQAEDEADYYCQSYANTLSLVFGGGTKLTVLG
modifications: 18R5/18R8 heavy chain variable region (VH); 18R5 light chain variable region (VL)
B2: 18R8: human anti-FZD antibody from phage display; VH SEQ ID NO:10, VL SEQ ID NO:12; binds FZD1, 2, 5, 7, 8 (antibody, V domains shown)
VH: B1 VH
VL: DIELTQPPSVSVAPGQTARISCSGDKLGKKYASWYQQKPGQAPVLVIYEKDNRPSGIPERFSGSNSGNTATLTISGTQAEDEADYYCSSFAGNSLEVFGGGTKLTVLG
modifications: 18R5/18R8 heavy chain variable region (VH); 18R8 light chain variable region (VL)

Key:
[1] = test system: OMP-C28 colon tumor xenografts; experiment: OMP-C28 colon tumor xenograft growth; format: in vivo, NOD/SCID mice; details: 18R5 10 mg/kg IP twice weekly, single agent; p=0.02
Experimental: In another embodiment anti-FZD antibodies were analyzed for their ability to reduce the growth of OMP-C28 colon tumor xenografts. Dissociated human OMP-C28 cells (10,000 per animal) were injected subcutaneously into 6-8 week old male NOD/SCID mice. Tumor growth was monitored weekly and tumor measurements were initiated once tumors were palpable. On day 24 mice with average tumor volume of 129 mm^3 were randomized into 4 groups of 10 animals each. Animals were injected with either control antibody, or 18R5 IgG antibody (10 mg/kg), or irinotecan (7.5 mg/kg) or combination of both 18R5 and irinotecan. Administration of the antibodies and irinotecan was performed via injection into the intra-peritoneal cavity, twice weekly. Tumors were measured twice a week and tumor volume was determined using the formula ½(a×b^2); where a=length, and b=breadth. Data are expressed as mean and mean±S.E.M. Group means were compared using Student's two-tailed, unpaired t test.

[2] = test system: OMP-Pn4 pancreatic tumor xenografts; experiment: OMP-Pn4 pancreatic tumor xenograft growth; format: in vivo, NOD/SCID mice; details: 10 mg/kg IP once weekly
Experimental: In another embodiment, anti-FZD antibodies were analyzed for their ability to reduce the growth of OMP-Pn4 pancreatic tumor xenografts. NOD/SCID mice were purchased from Harlan (Indianapolis, Ind.) and allowed to acclimate for several days prior to the studies. The establishment and characterization of in vivo cancer stem cell-driven pancreas xenograft models were described previously (Li et al., Cancer Res., 67:1030-7, 2007). For efficacy studies, OMP-Pn4 human pancreatic tumor cells were dissociated into single cell suspensions, resuspended in 1:1 (v/v) mixture of FACS buffer (Hank's balanced salt solution [HBSS] supplemented with 2% heat-inactivated fetal bovine serum and 20 mM Hepes) and Matrigel (BD Bioscience, San Jose, Calif.) and implanted subcutaneously into the right flank region of 6-7 weeks old male NOD/SCID mice with a 25-gauge needle containing 50,000 cells/100 μL. Tumor growth was monitored weekly and tumor measurements were initiated once tumors were palpable. […] Tumor growth was measured by with an electronic caliper (Coast Tools Company, San Leandro, Calif.). Tumors were measured once a week and tumor volume was determined using the formula ½(a×b^2); where a=length (longest axis of the tumor), and b=breadth (shortest axis of the tumor). […] Data are expressed as mean±S.E.M. Differences in mean values between groups were analyzed by non-parimetric t test. […]

[3] = test system: OMP-LU24 human lung tumors; experiment: OMP-LU24 lung tumor xenograft growth; format: in vivo, NOD-SCID mice; details: antibody 10 mg/kg IP once per week, Taxol 15 mg/kg IP once per week
Experimental: 50,000 OMP-LU24 human lung tumor cells were injected subcutaneously in NOD-SCID mice. Tumors were allowed to grow for 27 days until they reached an average volume of 143 mm^3. The animals were randomized into 4 groups (n=9 per group) and treated with either control antibody (“Control Ab”), anti-FZD 18R5 (“18R5”), Taxol® (“Taxol”) or the combination of 18R5 plus Taxol® (“18R5+Taxol”). Antibodies were dosed at 10 mg/kg intraperitoneal (IP), once per week and Taxol® was dosed at 15 mg/kg, IP, once per week.

[4] = test system: smooth muscle actin (SMA); experiment: Smooth Muscle Actin alpha immunofluorescence on treated OMP-PN4 tumors; format: in vivo, NOD/SCID mice; details: 10 mg/kg once a week for 6 weeks; vs control mAb
Experimental: As described in Example 7 above, OMP-PN4 tumor-bearing NOD/SCID mice were treated with control Ab (LZ-1), 18R5, gemcitabine, or the combination of 18R5 and gemcitabine once a week for 6 weeks. The antibodies were administered at a concentration of 10 mg/kg. After they were harvested, the tumors from that experiment were analyzed for the expression of Wnt target genes at both the RNA and protein levels, using microarray and IHC, respectively.
In preparation for Smooth Muscle Actin alpha (SMAa) immunofluorescence, tumor tissue was frozen using OCT. 4 micron sections were obtained and stored frozen at −80° C. For SMAa staining, tissue was fixed using chilled acetone at −20° C. for 15 minutes and then allowed to dry and come to room temperature and then marked using a hydrophobic PAP pen. Slides were then washed using phosphate buffered saline (PBS). Tissue was blocked using normal horse serum R.T.U. (Vector Labs) for 2 hours at room temperature. Primary antibody staining was performed with 1:10,000 dilution of FITC-conjugated Smooth muscle actin alpha antibody (cline 1A4, #F3777, SIGMA) for 1 hour. Sections were washed 3 times using PBS containing 0.1% triton X-100. Slides were then air-dried and then mounted using Hard set mounting medium containing DAPI (vectashied H-500).

PN4 pancreatic tumor = PN4 pancreatic tumor recurrence study; format: in vivo, Nod-Scid mice; details: gemcitabine 75 mg/kg once per week for 5 weeks, then antibody 10 mg/kg once per week
Experimental: PN4 pancreatic tumor recurrence study with 18R5 mAb: PN4 pancreatic tumor cells were injected into Nod-Scid mice and allowed to grow until the tumors had reached approximately 250 mm^3. The animals were given gemcitabine (75 mg/kg, once per week) for 5 weeks until tumors had regressed. The animals were randomized into two groups and given control antibody (black squares) or anti-FZD 18R5 (gray open circles). Antibodies were dosed at 10 mg/kg once per week.

Wnt signaling = experiment: 8xTCF luciferase reporter assay in STF293 cells with Wnt-overexpressing HEK293 cells; format: cell-based, human; details: 20 μg/ml; Wnt1, Wnt2, Wnt3, Wnt7A, Wnt7B, Wnt10B, Wnt3A inhibited; 18 hours
Experimental: In further experiments, the ability of the 18R8 antibody to antagonize signaling by different Wnt ligands was determined. HEK 293 cells were transfected with Wntl, Wnt2, Wnt2b2, Wnt3, Wnt3a, Wnt7a, Wnt7b, Wnt8a, Wnt9b, and Wnt10b for forty eight hours by Fugene 6 (Roche). Wnt3A conditioned medium (“WNT3ACM”) was used as a positive control of activation. STF293 cells, were cultured in DMEM supplemented with antibiotics and 10% FCS and treated with 20 μg/ml 18R8 antibody or no antibody. The Wnt-overexpressing HEK293 cells were then added. Eighteen hours following treatment, luciferase levels were measured using a dual luciferase assay kit.

| Molecule | reduction in tumor growth [1] [%] | tumor growth, monotherapy [2] | xenograft tumor growth [3] | Smooth Muscle Actin alpha (SMAa) amount [4] | tumor recurrence after gemcitabine treatment (PN4 pancreatic tumor) | inhibition of signaling by different Wnt ligands (Wnt signaling) |
| --- | --- | --- | --- | --- | --- | --- |
| B1 | 40 | did not result in a significant reduction in tumor growth | inhibits OMP-LU24 xenograft tumor growth | Reduced amounts of SMAa | delay tumor recurrence |  |
| B2 |  |  |  |  |  | inhibit signaling of a variety of Wnts |
